Measurements from patent publication US20250361268A1, “NOVEL ANTI-INFLAMMATORY PEPTIDE AND USE THEREOF” (NOVACELL TECHNOLOGY INC., priority 2022, published 2025).
Each block holds one molecule with its values, some of them ahead of it. Peptide text beside a SMILES is read from it.

Legend:
[1] = molecular target: T1, FPR1 (Homo sapiens, UniProt P21462); assay: Change in calcium activity by peptide, FPR1 activation effect; type: cell-based; settings: calcium activity (Fura-2), graded per Table 3, read-out: EC50 for [Ca^2+] FPR1
T1 sequence (P21462 1-350): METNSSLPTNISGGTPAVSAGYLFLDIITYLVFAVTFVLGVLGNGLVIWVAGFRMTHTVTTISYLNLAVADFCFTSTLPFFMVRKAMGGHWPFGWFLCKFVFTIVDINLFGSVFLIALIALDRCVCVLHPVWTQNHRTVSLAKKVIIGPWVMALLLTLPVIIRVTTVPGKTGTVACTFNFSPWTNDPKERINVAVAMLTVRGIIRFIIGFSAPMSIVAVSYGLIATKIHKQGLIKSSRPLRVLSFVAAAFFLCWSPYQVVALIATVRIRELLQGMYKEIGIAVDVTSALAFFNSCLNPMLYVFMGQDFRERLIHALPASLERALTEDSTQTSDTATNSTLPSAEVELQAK
Procedure, shortened: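 Calcium flux induced by peptide addition was monitored on a FlexStation 3 plate reader. Before this, cells seeded a day earlier (3×10^5/well) took up the Fura-2 dye for 1 h at 37 °C plus 30 min dark at room temperature.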

[2] = molecular target: T2, FPR2 (Homo sapiens, UniProt P25090); assay: Change in calcium activity by peptide (Fura-2) in RBL cells overexpressing FPR2; type: cell-based; settings: calcium activity (Fura-2), graded per Table 3, read-out: EC50 for [Ca^2+] FPR2
T2 construct: expressed in transfected cells; host or cells: RBL cells (RBL-FPR2)
T2 sequence (P25090 1-351): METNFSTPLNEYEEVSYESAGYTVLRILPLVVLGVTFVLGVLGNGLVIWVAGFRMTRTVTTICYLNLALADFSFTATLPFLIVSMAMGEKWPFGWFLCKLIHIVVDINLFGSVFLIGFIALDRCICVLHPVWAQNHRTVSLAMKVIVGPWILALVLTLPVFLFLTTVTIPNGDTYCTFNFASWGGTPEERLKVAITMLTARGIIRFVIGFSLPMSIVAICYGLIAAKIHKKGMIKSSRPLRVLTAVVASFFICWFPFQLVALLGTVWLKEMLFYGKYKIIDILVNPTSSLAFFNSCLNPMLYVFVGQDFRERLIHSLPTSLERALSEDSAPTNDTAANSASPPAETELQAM
Procedure, shortened: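 Peptide-induced intracellular calcium change measured by Fura-2 fluorescence on a plate reader. Cells: RBL line overexpressing FPR2, dye-loaded 1 h at 37 °C then 30 min at RT in dark; peptides from 0.5 mM water/50% DMSO stocks, diluted in HBSS with 20 mM HEPES.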

[3] = molecular target: T3, FPR1 (UniProt P21462 1-350, limits assumed); assay: cell-based or functional assay
T3 sequence (looked up): T1 sequence (P21462 1-350)

- EC50 [1]: > 10 µM
- EC50 [2]: < 0.01 µM
Molecule: CSCC[C@@H](NC(=O)[C@H](Cc1ccc(O)cc1)NC(=O)[C@@H](NC(=O)[C@H](Cc1ccc(O)cc1)NC(=O)[C@H](CCCNC(=N)N)NC(=O)[C@H](Cc1c[nH]c2ccccc12)NC(=O)[C@@H](N)CCCNC(=N)N)[C@@H](C)O)C(N)=O [Peptide 157] (HELM PEPTIDE1{R.W.R.Y.T.Y.[dM].[am]}$$$$V2.0)

- EC50 [1]: 1 to 10 µM
- EC50 [2]: 0.011 to 0.1 µM
Molecule: CSCC[C@@H](NC(=O)[C@@H](NC(=O)[C@H](CC(C)C)NC(=O)[C@H](Cc1ccc(O)cc1)NC(=O)[C@H](CCCNC(=N)N)NC(=O)[C@H](Cc1c[nH]c2ccccc12)NC(=O)[C@@H](N)CCCNC(=N)N)C(C)C)C(N)=O [Peptide 158] (HELM PEPTIDE1{R.W.R.Y.L.V.[dM].[am]}$$$$V2.0)

- EC50 [1]: 1 to 10 µM
- EC50 [2]: 0.011 to 0.1 µM
Molecule: CSCC[C@@H](NC(=O)[C@@H](NC(=O)[C@H](CC(N)=O)NC(=O)[C@H](Cc1ccc(O)cc1)NC(=O)[C@H](CCCNC(=N)N)NC(=O)[C@H](Cc1c[nH]c2ccccc12)NC(=O)[C@@H](N)CCCNC(=N)N)C(C)C)C(N)=O [Peptide 159] (HELM PEPTIDE1{R.W.R.Y.N.V.[dM].[am]}$$$$V2.0)

- EC50 [1]: 1 to 10 µM
- EC50 [2]: 0.011 to 0.1 µM
Molecule: CSCC[C@@H](NC(=O)[C@@H](NC(=O)[C@H](Cc1ccccc1)NC(=O)[C@H](Cc1ccc(O)cc1)NC(=O)[C@H](CCCNC(=N)N)NC(=O)[C@H](Cc1c[nH]c2ccccc12)NC(=O)[C@@H](N)CCCNC(=N)N)C(C)C)C(N)=O [Peptide 160] (HELM PEPTIDE1{R.W.R.Y.F.V.[dM].[am]}$$$$V2.0)

- EC50 for [Ca2+] [3]: > 10 µM
B1: peptide of SEQ ID NO 71 (peptide)
peptide: MKYKPM
HELM: PEPTIDE1{[ac].M.K.Y.K.P.[dM].[am]}$$$$V2.0
SMILES: CSCC[C@H](NC(C)=O)C(=O)N[C@@H](CCCCN)C(=O)N[C@@H](Cc1ccc(O)cc1)C(=O)N[C@@H](CCCCN)C(=O)N1CCC[C@H]1C(=O)N[C@H](CCSC)C(N)=O

- EC50 for [Ca2+] [3]: > 10 µM
B2: peptide of SEQ ID NO 8 (peptide)
peptide: RMRYKVM
HELM: PEPTIDE1{[CCCCCCCC(=O)[*:2]].R.M.R.Y.K.V.[dM].[am]}$$$$V2.0
SMILES: CCCCCCCC(=O)N[C@@H](CCCNC(=N)N)C(=O)N[C@@H](CCSC)C(=O)N[C@@H](CCCNC(=N)N)C(=O)N[C@@H](Cc1ccc(O)cc1)C(=O)N[C@@H](CCCCN)C(=O)N[C@H](C(=O)N[C@H](CCSC)C(N)=O)C(C)C

- EC50 for [Ca2+] [3]: > 10 µM
B3: peptide of SEQ ID NO 77 (peptide)
peptide: RWRYWYM
HELM: PEPTIDE1{R.W.R.Y.W.Y.[dM].[am]}$$$$V2.0; N-terminus assumed
SMILES: CSCC[C@@H](NC(=O)[C@H](Cc1ccc(O)cc1)NC(=O)[C@H](Cc1c[nH]c2ccccc12)NC(=O)[C@H](Cc1ccc(O)cc1)NC(=O)[C@H](CCCNC(=N)N)NC(=O)[C@H](Cc1c[nH]c2ccccc12)NC(=O)[C@@H](N)CCCNC(=N)N)C(N)=O

- EC50 for [Ca2+] [3]: > 10 µM
B4: peptide of SEQ ID NO 69 (peptide)
peptide: KMKYKPM
HELM: PEPTIDE1{[CCCCCCCC(=O)[*:2]].K.M.K.Y.K.P.[dM].[am]}$$$$V2.0
SMILES: CCCCCCCC(=O)N[C@@H](CCCCN)C(=O)N[C@@H](CCSC)C(=O)N[C@@H](CCCCN)C(=O)N[C@@H](Cc1ccc(O)cc1)C(=O)N[C@@H](CCCCN)C(=O)N1CCC[C@H]1C(=O)N[C@H](CCSC)C(N)=O

- EC50 for [Ca2+] [3]: > 10 µM
B5: peptide of SEQ ID NO 79 (peptide)
peptide: WRYWYM
HELM: PEPTIDE1{W.R.Y.W.Y.[dM].[am]}$$$$V2.0; N-terminus assumed
SMILES: CSCC[C@@H](NC(=O)[C@H](Cc1ccc(O)cc1)NC(=O)[C@H](Cc1c[nH]c2ccccc12)NC(=O)[C@H](Cc1ccc(O)cc1)NC(=O)[C@H](CCCNC(=N)N)NC(=O)[C@@H](N)Cc1c[nH]c2ccccc12)C(N)=O

- EC50 for [Ca2+] [3]: > 10 µM
B6: peptide of SEQ ID NO 48 (peptide)
peptide: RWRYRYM
HELM: PEPTIDE1{R.W.R.Y.R.Y.[dM].[am]}$$$$V2.0; N-terminus assumed
SMILES: CSCC[C@@H](NC(=O)[C@H](Cc1ccc(O)cc1)NC(=O)[C@H](CCCNC(=N)N)NC(=O)[C@H](Cc1ccc(O)cc1)NC(=O)[C@H](CCCNC(=N)N)NC(=O)[C@H](Cc1c[nH]c2ccccc12)NC(=O)[C@@H](N)CCCNC(=N)N)C(N)=O

- EC50 for [Ca2+] [3]: > 10 µM
B7: peptide of SEQ ID NO 44 (peptide)
peptide: HMRYKYM
HELM: PEPTIDE1{H.M.R.Y.K.Y.[dM].[am]}$$$$V2.0; N-terminus assumed
SMILES: CSCC[C@H](NC(=O)[C@@H](N)Cc1c[nH]cn1)C(=O)N[C@@H](CCCNC(=N)N)C(=O)N[C@@H](Cc1ccc(O)cc1)C(=O)N[C@@H](CCCCN)C(=O)N[C@@H](Cc1ccc(O)cc1)C(=O)N[C@H](CCSC)C(N)=O

- EC50 for [Ca2+] [3]: > 10 µM
B8: peptide of SEQ ID NO 73 (peptide)
peptide: MKYKPM
HELM: PEPTIDE1{[CCCCCCCC(=O)[*:2]].M.K.Y.K.P.[dM].[am]}$$$$V2.0
SMILES: CCCCCCCC(=O)N[C@@H](CCSC)C(=O)N[C@@H](CCCCN)C(=O)N[C@@H](Cc1ccc(O)cc1)C(=O)N[C@@H](CCCCN)C(=O)N1CCC[C@H]1C(=O)N[C@H](CCSC)C(N)=O

- EC50 for [Ca2+] [3]: > 10 µM
B9: peptide of SEQ ID NO 66 (peptide)
peptide: KMKYKPM
HELM: PEPTIDE1{K.M.K.Y.K.P.[dM].[am]}$$$$V2.0; N-terminus assumed
SMILES: CSCC[C@H](NC(=O)[C@@H](N)CCCCN)C(=O)N[C@@H](CCCCN)C(=O)N[C@@H](Cc1ccc(O)cc1)C(=O)N[C@@H](CCCCN)C(=O)N1CCC[C@H]1C(=O)N[C@H](CCSC)C(N)=O

- EC50 for [Ca2+] [3]: > 10 µM
B10: peptide of SEQ ID NO 72 (peptide)
peptide: MKYKPM
HELM: PEPTIDE1{[CCCC(=O)[*:2]].M.K.Y.K.P.[dM].[am]}$$$$V2.0
SMILES: CCCC(=O)N[C@@H](CCSC)C(=O)N[C@@H](CCCCN)C(=O)N[C@@H](Cc1ccc(O)cc1)C(=O)N[C@@H](CCCCN)C(=O)N1CCC[C@H]1C(=O)N[C@H](CCSC)C(N)=O

- EC50 for [Ca2+] [3]: > 10 µM
B11: peptide of SEQ ID NO 43 (peptide)
peptide: MRYKYM
HELM: PEPTIDE1{[CCCC(=O)[*:2]].M.R.Y.K.Y.[dM].[am]}$$$$V2.0
SMILES: CCCC(=O)N[C@@H](CCSC)C(=O)N[C@@H](CCCNC(=N)N)C(=O)N[C@@H](Cc1ccc(O)cc1)C(=O)N[C@@H](CCCCN)C(=O)N[C@@H](Cc1ccc(O)cc1)C(=O)N[C@H](CCSC)C(N)=O

- EC50 for [Ca2+] [3]: > 10 µM
B12: peptide of SEQ ID NO 49 (peptide)
peptide: MRYRYM
HELM: PEPTIDE1{[ac].M.R.Y.R.Y.[dM].[am]}$$$$V2.0
SMILES: CSCC[C@H](NC(C)=O)C(=O)N[C@@H](CCCNC(=N)N)C(=O)N[C@@H](Cc1ccc(O)cc1)C(=O)N[C@@H](CCCNC(=N)N)C(=O)N[C@@H](Cc1ccc(O)cc1)C(=O)N[C@H](CCSC)C(N)=O
